Measurements: patent US20190389923A1 (BIORION TECHNOLOGIES B V, published 2019)
Bridge positions count the residues as written; N and C are the ends. Ends that are not written are not given here.

Experiments:
[1] = target: T1, PDGF-beta receptor on mouse 3T3 fibroblasts (mouse, UniProt P05622 32-1098); experiment: FITC-BiPPB on mouse 3T3 fibroblasts, fluorescence microscopy
T1 construct: whole, on cells; also called PDGFß-receptor; PDGF-receptor
Description: (§1) Cells were seeded in the 8-well glass plates (Lab-Tek, Nunc, Naperville, Ill.) at 30,000 cells/well in the culture medium. […] After 2 h, cells were washed 3 to 4 times with cold PBS and fixed with 4% paraformaldehyde. The nuclei were counterstained with DAPI and mounted in citifluor (anti-fade reagent) and visualized under fluorescent microscope.
(§2) Similar binding experiments were performed in primary freshly isolated human myofibroblasts, mouse 3T3 fibroblasts and human hepatic stellate cells (LX2).

[2] = target: T2, PDGF-beta receptor on primary freshly isolated rat hepatic stellate cells (rat, UniProt Q05030 32-1097); experiment: FITC-BiPPB on primary rat hepatic stellate cells, fluorescence microscopy
T2 construct: whole, on cells; also called PDGFß-receptor; PDGF-βR
T2 sequence (Q05030 32-1097): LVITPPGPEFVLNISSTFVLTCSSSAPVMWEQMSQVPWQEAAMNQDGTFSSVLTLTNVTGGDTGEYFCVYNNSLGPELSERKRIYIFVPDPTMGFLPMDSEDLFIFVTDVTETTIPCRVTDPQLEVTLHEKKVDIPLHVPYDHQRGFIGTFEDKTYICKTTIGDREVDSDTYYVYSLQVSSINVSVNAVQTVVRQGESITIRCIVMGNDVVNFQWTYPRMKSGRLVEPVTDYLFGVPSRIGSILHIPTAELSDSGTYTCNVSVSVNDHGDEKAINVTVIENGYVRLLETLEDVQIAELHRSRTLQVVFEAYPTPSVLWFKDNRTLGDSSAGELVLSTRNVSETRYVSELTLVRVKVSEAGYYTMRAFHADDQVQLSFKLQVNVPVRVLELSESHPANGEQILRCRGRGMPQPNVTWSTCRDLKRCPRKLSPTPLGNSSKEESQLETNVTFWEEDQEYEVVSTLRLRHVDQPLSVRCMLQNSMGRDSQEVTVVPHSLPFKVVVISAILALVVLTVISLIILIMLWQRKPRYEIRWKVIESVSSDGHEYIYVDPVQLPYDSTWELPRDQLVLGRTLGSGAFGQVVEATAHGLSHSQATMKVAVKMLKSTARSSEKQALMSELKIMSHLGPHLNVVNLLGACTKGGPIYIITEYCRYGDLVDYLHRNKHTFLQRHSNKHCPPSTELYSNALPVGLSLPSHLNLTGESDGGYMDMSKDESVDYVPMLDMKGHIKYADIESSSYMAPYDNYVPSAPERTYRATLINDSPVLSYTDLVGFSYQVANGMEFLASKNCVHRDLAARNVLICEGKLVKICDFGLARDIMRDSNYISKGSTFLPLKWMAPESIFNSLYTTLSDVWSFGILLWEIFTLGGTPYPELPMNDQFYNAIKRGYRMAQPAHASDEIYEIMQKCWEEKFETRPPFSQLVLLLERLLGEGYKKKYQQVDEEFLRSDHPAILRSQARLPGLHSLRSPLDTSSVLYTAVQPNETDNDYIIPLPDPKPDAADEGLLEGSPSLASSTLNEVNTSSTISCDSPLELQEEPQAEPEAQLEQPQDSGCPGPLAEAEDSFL
Description: as §1

[3] = target: T3, PDGF-beta receptor on human cells (primary human myofibroblasts; human hepatic stellate cells LX2) (human, UniProt P09619 33-1106); experiment: FITC-BiPPB on primary freshly isolated human myofibroblasts, fluorescence microscopy
T3 construct: whole, on cells; also called PDGFß-receptor; PDGF-βR
T3 sequence (P09619 33-1106): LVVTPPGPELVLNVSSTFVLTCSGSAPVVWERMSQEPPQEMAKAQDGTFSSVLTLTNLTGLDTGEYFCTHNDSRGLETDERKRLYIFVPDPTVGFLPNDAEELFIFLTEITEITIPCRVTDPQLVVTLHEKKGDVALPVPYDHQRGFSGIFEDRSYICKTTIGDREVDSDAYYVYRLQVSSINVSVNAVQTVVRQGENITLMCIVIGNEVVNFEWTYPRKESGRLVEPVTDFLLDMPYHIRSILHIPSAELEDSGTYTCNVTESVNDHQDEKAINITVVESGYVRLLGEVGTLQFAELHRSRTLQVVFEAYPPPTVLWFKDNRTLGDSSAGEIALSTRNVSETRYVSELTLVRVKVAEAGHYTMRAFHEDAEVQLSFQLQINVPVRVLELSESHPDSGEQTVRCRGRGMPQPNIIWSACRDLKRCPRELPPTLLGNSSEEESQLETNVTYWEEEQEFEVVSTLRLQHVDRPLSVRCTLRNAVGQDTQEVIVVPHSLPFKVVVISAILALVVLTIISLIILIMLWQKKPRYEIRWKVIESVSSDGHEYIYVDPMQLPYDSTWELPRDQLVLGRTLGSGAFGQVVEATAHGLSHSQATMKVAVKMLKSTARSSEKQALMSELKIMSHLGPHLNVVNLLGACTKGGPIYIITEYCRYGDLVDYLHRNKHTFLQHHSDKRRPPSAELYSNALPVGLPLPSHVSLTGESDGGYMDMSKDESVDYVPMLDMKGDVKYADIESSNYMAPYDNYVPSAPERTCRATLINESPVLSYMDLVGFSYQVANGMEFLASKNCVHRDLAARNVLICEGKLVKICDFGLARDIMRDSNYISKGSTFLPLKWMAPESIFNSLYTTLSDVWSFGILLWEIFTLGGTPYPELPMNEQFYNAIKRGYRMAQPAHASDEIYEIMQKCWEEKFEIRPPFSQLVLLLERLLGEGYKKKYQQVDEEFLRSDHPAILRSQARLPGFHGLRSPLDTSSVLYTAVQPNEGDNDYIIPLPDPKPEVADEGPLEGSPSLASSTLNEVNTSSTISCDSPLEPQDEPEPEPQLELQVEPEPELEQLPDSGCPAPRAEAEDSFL
Description: as §1, §2

Measured: binding result

T1 sequence (P05622 32-1098): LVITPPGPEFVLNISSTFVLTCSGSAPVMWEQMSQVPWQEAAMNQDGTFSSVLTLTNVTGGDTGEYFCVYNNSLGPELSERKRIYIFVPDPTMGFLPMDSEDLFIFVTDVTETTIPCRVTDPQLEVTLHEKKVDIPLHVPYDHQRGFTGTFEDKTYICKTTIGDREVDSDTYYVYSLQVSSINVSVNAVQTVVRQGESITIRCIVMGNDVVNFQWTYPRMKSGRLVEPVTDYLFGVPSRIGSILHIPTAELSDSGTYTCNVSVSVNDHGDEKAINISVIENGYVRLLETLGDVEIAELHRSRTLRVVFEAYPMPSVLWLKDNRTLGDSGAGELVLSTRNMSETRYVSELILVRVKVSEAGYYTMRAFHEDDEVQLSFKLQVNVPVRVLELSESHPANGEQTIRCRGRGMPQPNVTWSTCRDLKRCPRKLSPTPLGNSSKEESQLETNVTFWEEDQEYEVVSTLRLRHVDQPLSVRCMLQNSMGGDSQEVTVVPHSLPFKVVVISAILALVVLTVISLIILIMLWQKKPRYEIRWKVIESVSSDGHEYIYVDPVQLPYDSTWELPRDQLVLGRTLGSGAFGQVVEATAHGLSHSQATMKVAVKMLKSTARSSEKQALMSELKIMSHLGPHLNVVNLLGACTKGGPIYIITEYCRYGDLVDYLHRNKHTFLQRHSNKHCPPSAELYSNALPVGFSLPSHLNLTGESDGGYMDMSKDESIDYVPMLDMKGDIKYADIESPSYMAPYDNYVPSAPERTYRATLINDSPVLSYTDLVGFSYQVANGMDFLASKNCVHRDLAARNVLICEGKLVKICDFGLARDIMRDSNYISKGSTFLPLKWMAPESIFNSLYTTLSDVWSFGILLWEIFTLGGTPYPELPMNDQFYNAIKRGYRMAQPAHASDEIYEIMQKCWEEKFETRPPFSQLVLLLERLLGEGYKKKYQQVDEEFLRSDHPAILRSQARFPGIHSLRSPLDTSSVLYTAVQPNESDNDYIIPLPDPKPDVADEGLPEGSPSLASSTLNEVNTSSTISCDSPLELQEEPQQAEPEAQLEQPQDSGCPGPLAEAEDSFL

B1: BiPPB (bicyclic PDGF-beta-receptor binding peptide), C(1)SRNLIDC(1)GGGDGGC(2)SRNLIDC(2), FITC-labelled (peptide)
peptide: CSRNLIDCGGGDGGCSRNLIDC
modifications: disulfide 1-8, 15-22; also: FITC label (site not given here)
notes: Used on primary rat hepatic stellate cells; also called FITC-coupled BiPPB
binds: all assays above
